Experimental findings from patent US10040826 are described below.

Test [1] has as its target A244 gp120 (no modifications) (HIV-1). Kind of test: SPR, Fab amine-coupled to the sensor surface, gp120 flowed. A general note: Surface plasmon resonance follows binding to a sensor surface in real time, without labels.
Test [2] deals with A244 gDΔ11 gp120 (Herpes simplex virus; HIV-1). Described as above.
For test [3], the target named is A244 gp120 (no modifications) (HIV-1). Put plainly: Kd table; row AE.A244 gp120, column A32 gD-; method not given.
Test [4] addresses A244 gDΔ11 gp120 (Herpes simplex virus; HIV-1). Put plainly: Kd table; row AE.A244 gp120, column A32 gD+; method not given.
The target in test [5] is 92TH023 gDΔ11 gp120 (Herpes simplex virus; HIV-1). Put plainly: Kd table; row AE.92TH023 gp120, column A32 gD+; method not given.
Test [6] deals with MN gDΔ11 gp120 (Herpes simplex virus; HIV-1). Put plainly: Kd table; row B.MN gp120, column A32 gD+; method not given.
Test [7] concerns the target A244-rgp120 (RV144 vaccine immunogen) (Herpes simplex virus; HIV-1). Put plainly: SPR; A32 captured on anti-Fc surface, RV144 A244-rgp120 injected at 0.5-5 µg/mL; fitted curves [lower row].
The target of test [8] is MN gDΔ11 gp120 (Herpes simplex virus; HIV-1). Kind of test: SPR, not detailed.
Test [9] addresses 92TH023 gDΔ11 gp120 (Herpes simplex virus; HIV-1). Put plainly: SPR, not detailed.
The target of test [10] is A244 gDΔ11 gp120 (Herpes simplex virus; HIV-1). Put plainly: SPR.
For test [11], the target named is A244 Δ11 gp120 (HIV-1). Kind of test: SPR.
The target of test [12] is A244 Δ11 gp120 (HIV-1). Kind of test: SPR; A244 gp120 gD- Δ11 293T monomer batch 110608 flowed over immobilised A32; response axis in RU.
Test [13] has as its target A244 Δ11 gp120 (HIV-1). Put plainly: SPR; A244 gp120 gD- Δ11 293T monomer batch 110608 flowed over immobilised A32; ratio to ConS gp140.
The target in test [14] is A244 Δ11 gp120 (HIV-1). Put plainly: SPR blocking on immobilized A244 Δ11 gp120, mAb injected to near saturation, then RV144 vaccinee IgG; against 7B2 control.
Test [15] concerns the target MN gp120 (no modifications) (HIV-1). Kind of test: Kd table; row B.MN gp120, column A32 gD-; method not given.
Test [16] has as its target A244 gp120 (no modifications) (HIV-1). Kind of test: SPR, mAb captured on anti-Fc surface, monomeric gp120 as analyte.
Test [17] has as its target A244 gDΔ11 gp120 (Herpes simplex virus; HIV-1). Described as above.
For test [18], the target named is A244 Δ11 gp120 (HIV-1). The test is described as above.
The target of test [19] is 92TH023 gp120 (no modifications) (HIV-1). Kind of test: Kd table; row AE.92TH023 gp120, column A32 gD-; method not given.
In test [20] the target is MN-rgp120 (RV144 vaccine immunogen) (Herpes simplex virus; HIV-1). Kind of test: SPR; A32 captured on anti-Fc surface, RV144 MN-rgp120 injected at 0.5-5 µg/mL; fitted curves.
For test [21], the target named is 92TH023 gDΔ11 gp120 (Herpes simplex virus; HIV-1). Put plainly: Kd table; row AE.92TH023 gp120, column 697D gD+; method not given.
Test [22] has as its target A244-rgp120 (RV144 vaccine immunogen) (Herpes simplex virus; HIV-1). Put plainly: SPR; 697D captured on anti-Fc surface, RV144 A244-rgp120 injected at 5.0-100 µg/mL; fitted curves [lower row].
Test [23] has as its target MN-rgp120 (RV144 vaccine immunogen) (Herpes simplex virus; HIV-1). Put plainly: SPR; 697D captured on anti-Fc surface, RV144 MN-rgp120 injected at 5.0-100 µg/mL; fitted curves.
Test [24] addresses MN gDΔ11 gp120 (Herpes simplex virus; HIV-1). Kind of test: Kd table; row B.MN gp120, column 697D gD+; method not given.
Test [25] deals with MN-rgp120 (RV144 vaccine immunogen) (Herpes simplex virus; HIV-1). Put plainly: SPR, mAb captured on anti-Fc surface, gp120 as analyte (FIG. 28).
In test [26] the target is A244-rgp120 (RV144 vaccine immunogen) (Herpes simplex virus; HIV-1). Described as above.
Test [27] has as its target A244 gDΔ11 gp120 (Herpes simplex virus; HIV-1). Put plainly: Kd table; row AE.A244 gp120, column 697D gD+; method not given.
The target of test [28] is A244 Δ11 gp120 (HIV-1). Kind of test: SPR titration, binding to 697D mAb; A244 gDneg D11 at [2], [4], [6], [10], [25], [50], unit inferred.
Test [29] has as its target A244 gp120 (no modifications) (HIV-1). Kind of test: SPR titration, binding to 697D mAb (697-30D); A244gDneg293Tmon at [5] to [40], unit inferred; constant labelled kd1.
The target in test [30] is 92TH023 gp120 (no modifications) (HIV-1). Put plainly: Kd table; row AE.92TH023 gp120, column 697D gD-; method not given.
For test [31], the target named is A244 gp120 (no modifications) (HIV-1). Put plainly: SPR titration, binding to 697D mAb (697-30D); A244gDneg293Tmon at [5] to [40], unit inferred.
The target of test [32] is A244 gDΔ11 gp120 (Herpes simplex virus; HIV-1). Kind of test: SPR titration, binding to 697D mAb (697-30D); A244 gD+ monomer at [10], [20], [30], [40], unit inferred.
For test [33] the target is unchanged. Kind of test: SPR titration, binding to 697D mAb (697-30D); A244 gD+ monomer at [10] to [40], unit inferred.
Test [34] has as its target A244 Δ11 gp120 (HIV-1). Put plainly: SPR titration, binding to 697D mAb; A244 gDneg D11 at [2] to [50], unit inferred.
Test [35] addresses A244 gp120 (no modifications) (HIV-1). Put plainly: SPR titration, binding to 697D mAb (697-30D); A244gDneg293Tmon at [5], [10], [20], [40], unit inferred; constant labelled ka1.
The target in test [36] is MN gp120 (no modifications) (HIV-1). Put plainly: Kd table; row B.MN gp120, column 697D gD-; method not given.
The target of test [37] is A244 gp120 (no modifications) (HIV-1). Put plainly: Kd table; row AE.A244 gp120, column 697D gD-; method not given.
Test [38] has the same target. Put plainly: SPR.

As to 697D Fab, the Kd – broadly, the equilibrium constant for the complex coming apart – in [1] was 5700 nM. In test [2], this substance returned a Kd of 690 nM, a fold higher affinity than to unmodified A244 gp120 of 8 fold and a fold higher ka than to A244 gp120 of 10 fold.
Regarding C1 mAb A32 (antibody), the Kd in [3] came to 2.6 nM; in [4], 0.13 nM; in test [5], 1.35 nM; in [6], 4.15 nM; in [7], 1.13 nM; in [15], 0.8 nM. Further, the Kd amounted to 6.25 nM in test [16]; 1 nM in [17]; 0.67 nM with A244 Δ11 gp120 (HIV-1) [18]; 4.6 nM in [19]; 0.21 nM in [20]. Besides, the fold enhancement of binding against the unmodified protein in test [8] and in test [9] was 2 to 3 fold each time. For the same substance, the fold higher affinity than to A244 gp120 in test [10] worked out at 6 fold; with A244 Δ11 gp120 (HIV-1) [11], 9 fold. For the same substance, the Req in the test with A244 Δ11 gp120 (HIV-1) [12] stood at 2290. Also, in the test with A244 Δ11 gp120 (HIV-1) [13], the Relative Binding Env/ConS gp140 stood at 5.16. The percent blocking of RV144 vaccinee IgG binding in the test with A244 Δ11 gp120 (HIV-1) [14] turned out to be 66%. Further, the off-rate constant (koff) (commonly the rate constant with which the complex falls apart) in [16] turned out to be 0.00047 s⁻¹; in [17], 0.000133 s⁻¹; in the test with A244 Δ11 gp120 (HIV-1) [18], 0.00015 s⁻¹. Also, the association rate constant (kon) (as a rule, the second-order rate constant of association) in test [16] turned out to be 76800 M⁻¹ s⁻¹; in test [17] it was 134000 M⁻¹ s⁻¹; with A244 Δ11 gp120 (HIV-1) [18] it was 223000 M⁻¹ s⁻¹.
In the case of V2 mAb 697D (antibody), the Kd in test [21] was 734 nM; in [22], 477 nM; in [23], 318 nM; in test [24] it was 488 nM; in test [25], 477 nM; in [26], 318 nM. Besides, the Kd in [27] is 180 nM; in test [30], 1310 nM; in test [31], 1900 nM; in test [33], 162 nM; in [16], 1470 nM; in [17] it was 218 nM. For the same substance, the Kd with A244 Δ11 gp120 (HIV-1) [18] turned out to be 157 nM; in the test with A244 Δ11 gp120 (HIV-1) [34], 98.7 nM; in test [36] it was 1070 nM; in test [37] it was 1000 nM. Besides, the kon with A244 Δ11 gp120 (HIV-1) [28] was 24700 M⁻¹ s⁻¹; in [32], 40000 M⁻¹ s⁻¹; in test [16], 4900 M⁻¹ s⁻¹; in [17] it was 24900 M⁻¹ s⁻¹; in the test with A244 Δ11 gp120 (HIV-1) [18], 26800 M⁻¹ s⁻¹; in test [35], 3400 M⁻¹ s⁻¹. Also, the koff was found to be 0.0063 s⁻¹ in [29]; 0.0066 s⁻¹ in test [33]; 0.007 s⁻¹ in test [16]; 0.00524 s⁻¹ in [17]; 0.00518 s⁻¹ in the test with A244 Δ11 gp120 (HIV-1) [18]; 0.0033 s⁻¹ with A244 Δ11 gp120 (HIV-1) [34]. Also, the fold enhancement of binding against the unmodified protein in test [8] and in [9] was 2 to 3 fold each time. In addition, the fold higher affinity than to A244 gp120 (in test [10]; with A244 Δ11 gp120 (HIV-1) [11]) was 10 fold throughout. The fold tighter binding than to A244 gp120 with no modifications with A244 Δ11 gp120 (HIV-1) [11] came out at 10 fold.
Take V2 mAb 2158 (antibody): the fold lower affinity than for A244gDΔ11 and A244Δ11 gp120 in [38] was determined as 3 fold. In test [16], this substance had a Kd of 11.2 nM, an off-rate (koff) of 0.00019 s⁻¹ and an on-rate constant (kon) of 16400 M⁻¹ s⁻¹. For the same substance, in [17], the equilibrium dissociation constant (Kd) is 3.7 nM, the koff was determined as 0.0001 s⁻¹ and the on-rate constant (kon) worked out at 28700 M⁻¹ s⁻¹. Further, in the test with A244 Δ11 gp120 (HIV-1) [18], the Kd is 3.68 nM, the koff came to 0.00013 s⁻¹ and the kon stood at 36500 M⁻¹ s⁻¹.
